Reference: US20260176336A1 (MESTAG THERAPEUTICS, published 2026)

How the values were obtained:
[1] = target: T1, human LTBR endogenously expressed on cells (HepG2, A549, A375, HCC1187, RPMI-7951, primary human breast CAFs) (human, UniProt P36941 31-435); assay: cell-based or functional assay
[2] = target: T1, human LTBR endogenously expressed on …; assay: cell-based or functional assay; remark: listed apart in the source
[3] = target: T1, human LTBR endogenously expressed on …; assay: cell-based or functional assay; remark: listed apart in the source
[4] = target: T1, human LTBR endogenously expressed on …; assay: cell-based or functional assay; remark: listed apart in the source
[5] = target: T1, human LTBR endogenously expressed on …; assay: cell-based or functional assay; remark: listed apart in the source
[6] = target: T1, human LTBR endogenously expressed on …; assay: flow cytometry, A549 cells
Description: (§1) In short, 1×10⁶ cells were resuspended in the FACS buffer (1% BSA, 0.1% Sodium Azide in PBS), and 50 μl was added to each well (5×10⁴ cells/well) of a 96-U bottom plate. The cells were washed once and resuspended in 50 μl/well of FACS buffer containing a 1:3, 11-point series dilutions of constructs 4.1-4.6 and clones 4.8-4.9 followed by 1 h incubation at 4° C. […] Next, cells were washed and resuspended in FACS buffer and read on Beckman Coulter CytoFLEX. The data were analysed using FloJo V10 and GraphPad Prism v9. Clone 4.7 was tested for binding to A375 (LTBR positive cell line) and the HEK293-FAP overexpressing cell line, as described in examples 2.4 and 3.5. The EC50 values can be found in.

[7] = target: T2, human FAP expressed on cells (transfected HEK293; FAP-CHO-K1 recombinant cell line, BPS cat no. 79947) (human, UniProt Q12884 1-760); assay: flow cytometry, FAP-CHO-K1 cells
T2 construct: also called HuFAP-HEK293; Hek-FAP
Description: as §1

[8] = target: T3, Biotinylated hLTBR-His-Avitag (Acro, cat no LTR-H82E9-25 µg) (human, UniProt P36941 31-227, biotinylated (Avitag)); assay: BLI (Octet), biotinylated LTBR on SA sensor, antibody as analyte
T3 construct: bought protein loaded on SA Streptavidin biosensors
T3 sequence (P36941 31-227 limits assumed): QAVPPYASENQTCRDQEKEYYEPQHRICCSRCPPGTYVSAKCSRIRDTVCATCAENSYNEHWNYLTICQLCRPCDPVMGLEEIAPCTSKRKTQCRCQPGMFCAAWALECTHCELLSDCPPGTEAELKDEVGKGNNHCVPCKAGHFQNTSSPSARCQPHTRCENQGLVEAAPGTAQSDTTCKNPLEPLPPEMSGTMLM
Description: Briefly, Biotinylated hLTBR-His-Avitag (Acro, cat no LTR-H82E9-25 μg) was loaded on SA Streptavidin biosensors (Fortebio) in kinetics buffer (ForteBio) followed by a 2-fold dilution series starting at 50 nM of FAP/LTBR bispecific antibodies. Binding kinetics were studied in a 1× Kinetics buffer where the association was allowed for 100 seconds, followed by dissociation for 300 seconds. Data generated were referenced by subtracting a parallel buffer blank, the baseline was aligned with the y-axis, inter-step correlation by alignment against dissociation was performed, and the data were smoothed by a Savitzky-Golay filter in the data analysis software. The processed data were fitted using a 1:1 Langmuir binding model with R\hat{ }2 as a measurement of fitting accuracy. The KD and R\hat{ }2 values can be found in.

[9] = target: cynomologus recombinant LTBR (Octet, Example 4.8) (cynomolgus (Macaca fascicularis), UniProt P36941 31-227 (human entry), limits assumed); assay: BLI (Octet), cyno LTBR immobilised on ARG sensor, antibody at 25 nM
Sequence of cynomologus recombinant LTBR (Octet, Example 4.8) (P36941 other isoform, or with tags, fused parts or gaps limits assumed): as the sequence (P36941 31-227 limits assumed) above, with A2V, A7G, Q24R, I45S, N163D, K181R, L184S, P186S counted along it
Description: A 2-fold series dilution starting at 50 nM of cynomologus recombinant LTBR was immobilised on the surface of ARG biosensors (Fortebio), followed by FAP/LTBR bispecific at 25 nM. Binding kinetics were studied in a 1× Kinetics buffer where the association was allowed for 180 seconds, followed by dissociation for 100 seconds. Sensor tips were regenerated using ethylene glycol. Data generated were referenced by subtracting a parallel buffer blank, the baseline was aligned with the y-axis, inter-step correlation by alignment against dissociation was performed, and the data were smoothed by a Savitzky-Golay filter in the data analysis software. The processed data were fitted using a 1:1 Langmuir binding model with R\hat{ }2 as a measurement of fitting accuracy. The KD values can be found in.

[10] = target: T4, human FAP (Acro, cat no FAP-H82Q6) (human, UniProt Q12884 26-760); assay: BLI (Octet), antibody captured by anti-Fc, FAP as analyte; * value outside instrument specifications; avid binding to dimeric FAP; value flagged as outside instrument specifications
T4 construct: 'FAP is naturally a dimeric antigen'
Description: Binding to recombinant FAP proteins was investigated by Bio-Layer Interferometry (BLI) using the Octet instrument. Using standard amine coupling chemistry, an anti-Fc antibody was immobilised on the surface of ARG biosensors (Fortebio). The FAP/LTBR bispecific antibodies were loaded on the previously coated surface with anti-Fc capture antibody, followed by a 2-fold series dilution starting at 50 nM of either cyno FAP (Acro, cat no FAP-C82Q5) or human FAP (Acro, cat no FAP-H82Q6). Binding kinetics were studied in a 1× Kinetics buffer where the association was allowed for 200 seconds, followed by dissociation for 400 seconds. Sensor tips were regenerated using 10 mM Glycine pH 2.0. Data generated were referenced by subtracting a parallel buffer blank, the baseline was aligned with the y-axis, inter-step correlation by alignment against dissociation was performed, and the data were smoothed by a Savitzky-Golay filter in the data analysis software. The processed data were fitted using a 1:1 Langmuir binding model with R\hat{ }2 as a measurement of fitting accuracy. The Results are summarised in. Avidity was observed as FAP is naturally a dimeric antigen, and the limited detection by Octet with these molecules has been reached. Species cross-reactivity has been confirmed for all test samples.

[11] = target: T1, human LTBR endogenously expressed on …; assay: flow cytometry, A375 cells
[12] = target: T2, human FAP expressed on cells …; assay: flow cytometry, HEK293-FAP overexpressing cells
[13] = target: Human LTBR (Acro), recombinant protein (human, UniProt P36941 31-227, limits assumed); assay: SPR (Carterra LSA) as in Example 2.6, antibody captured, LTBR as analyte
Sequence of Human LTBR (Acro), recombinant protein (P36941 31-227 limits assumed): as the sequence (P36941 31-227 limits assumed) above
Description: (§2) The binding of anti-LTBR antibodies to human and cynomolgus LTBR was investigated by Surface Plasmon Resonance (SPR) on Carterra LSA. An EC30M chip was used to capture the test antibodies. Activation with EDC and sNHS occurred in MES pH 5.5 to prepare the chip for amine coupling. Goat anti-human IgG Fc antibody was then captured to the chip via incubation for 10 minutes. Excess conjugation sites were quenched with 1M Ethanolamine pH 8. To measure monovalent binding kinetics, antibodies were printed/spotted onto the chip and allowed to bind to the goat antibody, followed by subsequent washing. After the preparation, the printed chip was exposed to repeated rounds of association and dissociation with increasing analyte concentrations. In this work, recombinant proteins (Human LTBR (Acro) or cyno LTBR His (R&D)) were serially diluted across a range starting at 1500 nM with 3-fold dilutions and 10 points. The curves were fitted to global fit in a 1:1 binding model to obtain KD values. The binding affinity to both species is reported.

[14] = target: T5, cyno LTBR His (R&D), recombinant protein (cynomolgus (Macaca fascicularis), UniProt P36941 31-227 (human entry), limits assumed); assay: as above
T5 construct: bought protein used as analyte on Carterra LSA
T5 sequence (P36941 other isoform, or with tags, fused parts or gaps limits assumed): as the sequence (P36941 31-227 limits assumed) above, with A2V, A7G, Q24R, I45S, N163D, K181R, L184S, P186S counted along it
Description: as §2

[15] = target: Human FAP (Acro), recombinant protein (human, UniProt Q12884 26-760); assay: SPR (Carterra LSA) as in Example 3.6, antibody captured, FAP as analyte; * value outside instrument specifications
Description: (§3) Binding of anti-FAP antibodies to human and cynomolgus FAP was investigated by Surface Plasmon Resonance (SPR) on Carterra LSA. An EC30M chip was used to capture the test antibodies. The chip was activated for bioconjugation using EDC and sNHS in MES pH 5.5 to prepare the chip for amine coupling. Goat anti-human IgG Fc antibody was then captured to the chip via incubation for 10 minutes. Excess conjugation sites were quenched with 1M Ethanolamine pH 8. To measure monovalent binding kinetics, antibodies were printed/spotted onto the chip and allowed to bind to the goat antibody, followed by subsequent washing. After the preparation, the printed chip was exposed to repeated rounds of association and dissociation with increasing analyte concentrations. In this work, recombinant proteins (Human FAP (Acro) or cyno FAP His (Acro)) were serially diluted across a range starting at 1500 nM with 3-fold dilutions and 10 points. The curves were fitted to global fit in a 1:1 binding model to obtain KD values. The binding affinity to both human and cynomolgus FAP is reported in.

[16] = target: T6, cyno FAP His (Acro), recombinant protein (cynomolgus (Macaca fascicularis), UniProt Q12884 26-760 (human entry)); assay: as above
T6 construct: bought protein used as analyte on Carterra LSA
Description: as §3

[17] = target: T7, mouse LTBR on cells (4T1 tumor cell line; primary mouse lung fibroblasts) (mouse, UniProt P50284 31-415); assay: cell-based or functional assay
T7 sequence (P50284 31-415): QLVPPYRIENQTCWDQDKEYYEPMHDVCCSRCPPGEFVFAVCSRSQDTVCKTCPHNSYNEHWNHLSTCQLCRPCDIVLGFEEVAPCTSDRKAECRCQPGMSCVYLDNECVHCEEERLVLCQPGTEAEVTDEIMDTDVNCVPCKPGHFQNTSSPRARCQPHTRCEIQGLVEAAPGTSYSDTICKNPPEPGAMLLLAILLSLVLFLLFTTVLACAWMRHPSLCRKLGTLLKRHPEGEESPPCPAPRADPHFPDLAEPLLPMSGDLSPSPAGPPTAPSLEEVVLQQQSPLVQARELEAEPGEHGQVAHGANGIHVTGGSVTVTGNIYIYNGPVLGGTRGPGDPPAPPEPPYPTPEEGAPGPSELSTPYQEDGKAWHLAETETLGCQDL

[18] = target: T7, mouse LTBR on cells (4T1 tumor cell …); assay: cell-based or functional assay; remark: listed apart in the source

T1 sequence (P36941 31-435): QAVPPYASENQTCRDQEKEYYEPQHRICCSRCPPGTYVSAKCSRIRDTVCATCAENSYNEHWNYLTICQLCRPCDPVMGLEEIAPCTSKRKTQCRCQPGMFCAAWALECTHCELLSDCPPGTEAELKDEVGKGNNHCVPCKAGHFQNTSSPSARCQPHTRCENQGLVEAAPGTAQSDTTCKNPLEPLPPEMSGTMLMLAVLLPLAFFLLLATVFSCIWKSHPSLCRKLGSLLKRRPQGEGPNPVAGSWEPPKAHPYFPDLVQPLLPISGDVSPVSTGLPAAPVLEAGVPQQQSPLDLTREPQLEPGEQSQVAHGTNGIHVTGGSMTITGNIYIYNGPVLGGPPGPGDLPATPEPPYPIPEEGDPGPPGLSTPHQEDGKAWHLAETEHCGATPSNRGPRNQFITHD

B1: Clone 4.1 (bispecific antibody, human IgG1, kappa, L234A L235A)
heavy 1: not shown
heavy 2: QLQLQESGPGLVKPSETLSLTCTVSGGSISSSTYYWGWIRQPPGKGLEWIGSIFYSGNTYYNPSLKSRVTISVDTSKNHFSLKLSSVTAADTAVYYCAREIIEPRPGYFDYWGQGTLVTVSSASTKGPSVFPLAPSSKSTSGGTAALGCLVKDYFPEPVTVSWNSGALTSGVHTFPAVLQSSGLYSLSSVVTVPSSSLGTQTYICNVNHKPSNTKVDKKVEPKSCDKTHTCPPCPAPEAAGGPSVFLFPPKPKDTLMISRTPEVTCVVVDVSHEDPEVKFNWYVDGVEVHNAKTKPREEQYNSTYRVVSVLTVLHQDWLNGKEYKCKVSNKALPAPIEKTISKAKGQPREPQVCTLPPSRDELTKNQVSLSCAVKGFYPSDIAVEWESNGQPENNYKTTPPVLDSDGSFFLVSKLTVDKSRWQQGNVFSCSVMHEALHNHYTQKSLSLSPG
light: not shown
notes: FAP:LTBR 1:1 heterodimer of LTBR VHH (clone 1.6) paired with FAP Fab (clone 3.5), human IgG1 LALA
HepG2 Reporter assay, HepG2:FAP-CHO-K1 Co-culture EC50 [1]: 0.07 nM
CCL19 upregulation, HCC1187:CAF Co-culture EC50 [2]: 0.055 nM
ICAM1 upregulation in CAFs monoculture assay EC50 [3]: 0.026 nM
chemokine (CCL5) induction in RPMI-7951 EC50 [4]: 0.09 nM
HCC-1187:RPMI7951 (cis-activation) co-culture assay CCL5 read-out EC50 [5]: 0.052 nM
HCC-1187:RPMI7951 (trans-activation) co-culture assay, CCL19 Read-out EC50 [5]: 0.084 nM
EC50 [6]: 29 nM
EC50 [7]: 0.28 nM
Kd [8]: 4 nM
Kd [9]: 7.7 nM
Kd [10]: 0.182 nM

B2: Clone 4.7 (bispecific antibody, human IgG1, kappa, L234A L235A)
heavy 1: not shown
heavy 2: QVQLVQSGAEVKKPGASVKVSCKASGYTFTGYYMNWVRQAPGQGLEWMGWINPQSGDVNFAQKFQGRVTMTRDTSISTAYMELSRLRSDDTAVYYCARQFRGYSYGYGMDVWGQGTTVTVSSASTKGPSVFPLAPSSKSTSGGTAALGCLVKDYFPEPVTVSWNSGALTSGVHTFPAVLQSSGLYSLSSVVTVPSSSLGTQTYICNVNHKPSNTKVDKKVEPKSCDKTHTCPPCPAPEAAGGPSVFLFPPKPKDTLMISRTPEVTCVVVDVSHEDPEVKFNWYVDGVEVHNAKTKPREEQYNSTYRVVSVLTVLHQDWLNGKEYKCKVSNKALPAPIEKTISKAKGQPREPQVCTLPPSRDELTKNQVSLSCAVKGFYPSDIAVEWESNGQPENNYKTTPPVLDSDGSFFLVSKLTVDKSRWQQGNVFSCSVMHEALHNHYTQKSLSLSPG
light: not shown
notes: FAP:LTBR 2:1 heterodimer of FAP mAb (clone 3.7) with C terminal fused LTBR scFv (clone 2.3), human IgG1 LALA
HepG2 Reporter assay, HepG2:FAP-CHO-K1 Co-culture EC50 [1]: 0.023 nM
CCL19 upregulation, HCC1187:CAF Co-culture EC50 [2]: 0.073 nM
ICAM1 upregulation in CAFs monoculture assay EC50 [3]: 0.012 nM
chemokine (CCL5) induction in RPMI-7951 EC50 [4]: 0.0096 nM
HCC-1187:RPMI7951 (cis-activation) co-culture assay CCL5 read-out EC50 [5]: 0.01 nM
EC50 [11]: 6 nM
EC50 [12]: 0.34 nM
Kd [13]: 1.8 nM
Kd [14]: 0.4 nM
Kd [15]: 0.16 nM
Kd [16]: 0.15 nM

B3: Clone 4.14 (antibody, V domains shown)
VH: QVQLKESGPGLVQPSQTLSLTCTVSGFSLTTYSVHWVRQHSGKSLEWMGRMWTDGDTSYNSAFTSRLSISRDTSKSQVFLKMNSLQTEDTGTYYCARGYWYFDFWGPGTMVTVSS
VL: DVQMTQSPSYLAASPGESVSIRCKASKSISNNLAWYQEKPGKANKLLIHSGSTLQSGTPSRFSGSGSGTDFTLTIRSLEFEDFAVYYCQQYNEYPYTFGAGTKLELK
4T1:CHO-FAP co-culture CCL5 read-out EC50 [17]: 0.28 nM
4T1:CHO-FAP co-culture CCL5 read-out EC50, 4.14 + cross-linking antibody [17]: 0.096 nM
4T1 monoculture CCL5 read-out EC50 [17]: 0.47 nM
4T1 monoculture CCL5 read-out EC50, 4.14 + cross-linking antibody [17]: 0.14 nM
ICAM1 induction in PMLF EC50 [18]: 0.063 nM
ICAM1 induction in PMLF EC50, 4.14 + cross-linking antibody [18]: 0.021 nM
